Experiment [1] concerns the target recombinant human amylin 3 receptor (hAMYR3) (human), P30988. In words: cell-based or functional assay.
Experiment [2] has as its target recombinant human calcitonin receptor (hCT-R) (human), P30988. The experiment in a line: cell-based or functional assay.

Numbered stars: 1 amine (or outer) side, 2 acyl side, 3 side chain; on linkers, the order of the positions; unused ones are H or OH. Bridge positions count the residues as written; N and C are the ends. Square brackets hold non-standard residues; d marks the D form. * marks the point of attachment. C20 diacid = O=C(O)CCCCCCCCCCCCCCCCCCC(=O)*; γGlu = O=C(O)[C@H](CCC(=O)[*:2])N[*:1]; Hyp = O=C(O)[C@@H]1C[C@@H](O)CN1; NMeI = CC[C@H](C)[C@H](NC)C(=O)O; Aad = N[C@@H](CCCC(=O)O)C(=O)O; Orn = NCCC[C@H](N)C(=O)O; Dab = NCC[C@H](N)C(=O)O; Dap = NC[C@H](N)C(=O)O; Sar = CNCC(=O)O

recombinant human amylin 3 receptor (hAMYR3) (human), P30988, sequence (P30988 25-474, chain 1 of 2): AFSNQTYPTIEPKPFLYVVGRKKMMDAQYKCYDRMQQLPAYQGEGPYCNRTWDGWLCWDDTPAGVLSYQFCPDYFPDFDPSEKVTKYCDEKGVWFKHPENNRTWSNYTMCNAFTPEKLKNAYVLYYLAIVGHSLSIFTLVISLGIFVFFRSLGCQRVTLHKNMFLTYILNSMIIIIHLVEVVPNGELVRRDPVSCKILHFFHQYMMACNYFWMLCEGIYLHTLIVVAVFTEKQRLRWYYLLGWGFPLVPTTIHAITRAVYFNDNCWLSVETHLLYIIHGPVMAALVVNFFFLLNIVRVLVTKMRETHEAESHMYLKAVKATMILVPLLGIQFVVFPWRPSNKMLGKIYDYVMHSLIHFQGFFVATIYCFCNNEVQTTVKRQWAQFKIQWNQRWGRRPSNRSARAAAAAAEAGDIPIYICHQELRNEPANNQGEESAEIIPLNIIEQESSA
recombinant human amylin 3 receptor (hAMYR3) (human), P30988, sequence (O60896 24-148, chain 2 of 2, further chain): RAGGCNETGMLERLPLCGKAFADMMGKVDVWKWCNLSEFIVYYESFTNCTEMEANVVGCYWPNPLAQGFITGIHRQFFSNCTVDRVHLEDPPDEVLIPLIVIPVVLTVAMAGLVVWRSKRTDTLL
recombinant human calcitonin receptor (hCT-R) (human), P30988, sequence (P30988 25-474): as the sequence (P30988 25-474, chain 1 of 2) above

B1: Compound 5 (peptide)
peptide: {C20 diacid-γGlu}-RDGTAT[Orn]ATERLAHFLQRSSF[Sar]A[NMeI]PSSTEVGSNT[Hyp]-NH2
modifications: lactam 2-7
SMILES: CC[C@H](C)[C@@H](C(=O)N1CCC[C@H]1C(=O)N[C@@H](CO)C(=O)N[C@@H](CO)C(=O)N[C@H](C(=O)N[C@@H](CCC(=O)O)C(=O)N[C@H](C(=O)NCC(=O)N[C@@H](CO)C(=O)N[C@@H](CC(N)=O)C(=O)N[C@H](C(=O)N1C[C@H](O)C[C@H]1C(N)=O)[C@@H](C)O)C(C)C)[C@@H](C)O)N(C)C(=O)[C@H](C)NC(=O)CN(C)C(=O)[C@H](Cc1ccccc1)NC(=O)[C@H](CO)NC(=O)[C@H](CO)NC(=O)[C@H](CCCNC(=N)N)NC(=O)[C@H](CCC(N)=O)NC(=O)[C@H](CC(C)C)NC(=O)[C@H](Cc1ccccc1)NC(=O)[C@H](Cc1c[nH]cn1)NC(=O)[C@H](C)NC(=O)[C@H](CC(C)C)NC(=O)[C@H](CCCNC(=N)N)NC(=O)[C@H](CCC(=O)O)NC(=O)[C@@H](NC(=O)[C@H](C)NC(=O)[C@@H]1CCCNC(=O)C[C@H](NC(=O)[C@H](CCCNC(=N)N)NC(=O)CC[C@H](NC(=O)CCCCCCCCCCCCCCCCCCC(=O)O)C(=O)O)C(=O)NCC(=O)N[C@@H]([C@@H](C)O)C(=O)N[C@@H](C)C(=O)N[C@@H]([C@@H](C)O)C(=O)N1)[C@@H](C)O
In the case of B1, the hAMYR3 EC50 [nM] (cAMP formation, 1321N1 cells expressing hAMYR3) in experiment [1] came out at 0.032 nM. Moreover, in experiment [2], the hCT-R EC50 [nM] (cAMP formation, 1321N1 cells expressing hCT-R) stood at 0.114 nM.

B2: Ref. 2 (peptide)
peptide: {C20 diacid-γGlu}-RCGTATCATERLAHFLQRSSF[Sar]A[NMeI]LSSTEVGSNT[Hyp]-NH2
modifications: disulfide 2-7
SMILES: CC[C@H](C)[C@@H](C(=O)N[C@@H](CC(C)C)C(=O)N[C@@H](CO)C(=O)N[C@@H](CO)C(=O)N[C@H](C(=O)N[C@@H](CCC(=O)O)C(=O)N[C@H](C(=O)NCC(=O)N[C@@H](CO)C(=O)N[C@@H](CC(N)=O)C(=O)N[C@H](C(=O)N1C[C@H](O)C[C@H]1C(N)=O)[C@@H](C)O)C(C)C)[C@@H](C)O)N(C)C(=O)[C@H](C)NC(=O)CN(C)C(=O)[C@H](Cc1ccccc1)NC(=O)[C@H](CO)NC(=O)[C@H](CO)NC(=O)[C@H](CCCNC(=N)N)NC(=O)[C@H](CCC(N)=O)NC(=O)[C@H](CC(C)C)NC(=O)[C@H](Cc1ccccc1)NC(=O)[C@H](Cc1c[nH]cn1)NC(=O)[C@H](C)NC(=O)[C@H](CC(C)C)NC(=O)[C@H](CCCNC(=N)N)NC(=O)[C@H](CCC(=O)O)NC(=O)[C@@H](NC(=O)[C@H](C)NC(=O)[C@@H]1CSSC[C@H](NC(=O)[C@H](CCCNC(=N)N)NC(=O)CC[C@H](NC(=O)CCCCCCCCCCCCCCCCCCC(=O)O)C(=O)O)C(=O)NCC(=O)N[C@@H]([C@@H](C)O)C(=O)N[C@@H](C)C(=O)N[C@@H]([C@@H](C)O)C(=O)N1)[C@@H](C)O
With B2, in experiment [1], the hAMYR3 EC50 [nM] (cAMP formation, 1321N1 cells expressing hAMYR3) is 0.003 nM. In experiment [2], the hCT-R EC50 [nM] (cAMP formation, 1321N1 cells expressing hCT-R) was found to be 0.019 nM.

B3: Ref. 1 (peptide)
peptide: {C20 diacid-γGlu}-RDGTAT[Orn]ATERLAHFLQRSSF[Sar]A[NMeI]PSSTEVGSNT[Hyp]-NH2
SMILES: CC[C@H](C)[C@@H](C(=O)N1CCC[C@H]1C(=O)N[C@@H](CO)C(=O)N[C@@H](CO)C(=O)N[C@H](C(=O)N[C@@H](CCC(=O)O)C(=O)N[C@H](C(=O)NCC(=O)N[C@@H](CO)C(=O)N[C@@H](CC(N)=O)C(=O)N[C@H](C(=O)N1C[C@H](O)C[C@H]1C(N)=O)[C@@H](C)O)C(C)C)[C@@H](C)O)N(C)C(=O)[C@H](C)NC(=O)CN(C)C(=O)[C@H](Cc1ccccc1)NC(=O)[C@H](CO)NC(=O)[C@H](CO)NC(=O)[C@H](CCCNC(=N)N)NC(=O)[C@H](CCC(N)=O)NC(=O)[C@H](CC(C)C)NC(=O)[C@H](Cc1ccccc1)NC(=O)[C@H](Cc1c[nH]cn1)NC(=O)[C@H](C)NC(=O)[C@H](CC(C)C)NC(=O)[C@H](CCCNC(=N)N)NC(=O)[C@H](CCC(=O)O)NC(=O)[C@@H](NC(=O)[C@H](C)NC(=O)[C@H](CCCN)NC(=O)[C@@H](NC(=O)[C@H](C)NC(=O)[C@@H](NC(=O)CNC(=O)[C@H](CC(=O)O)NC(=O)[C@H](CCCNC(=N)N)NC(=O)CC[C@H](NC(=O)CCCCCCCCCCCCCCCCCCC(=O)O)C(=O)O)[C@@H](C)O)[C@@H](C)O)[C@@H](C)O
As for B3, the hAMYR3 EC50 [nM] (cAMP formation, 1321N1 cells expressing hAMYR3) in experiment [1] was determined as 17.1 nM. In addition, the hCT-R EC50 [nM] (cAMP formation, 1321N1 cells expressing hCT-R) in experiment [2] amounted to 20.3 nM.

B4: Compound 50 (peptide)
peptide: {C20 diacid-γGlu}-R[Aad]GTAT[Dap]ATERLAHFLQRSSF[Sar]A[NMeI]LSSTEVGSNT[Hyp]-NH2
modifications: lactam 2-7
SMILES: CC[C@H](C)[C@@H](C(=O)N[C@@H](CC(C)C)C(=O)N[C@@H](CO)C(=O)N[C@@H](CO)C(=O)N[C@H](C(=O)N[C@@H](CCC(=O)O)C(=O)N[C@H](C(=O)NCC(=O)N[C@@H](CO)C(=O)N[C@@H](CC(N)=O)C(=O)N[C@H](C(=O)N1C[C@H](O)C[C@H]1C(N)=O)[C@@H](C)O)C(C)C)[C@@H](C)O)N(C)C(=O)[C@H](C)NC(=O)CN(C)C(=O)[C@H](Cc1ccccc1)NC(=O)[C@H](CO)NC(=O)[C@H](CO)NC(=O)[C@H](CCCNC(=N)N)NC(=O)[C@H](CCC(N)=O)NC(=O)[C@H](CC(C)C)NC(=O)[C@H](Cc1ccccc1)NC(=O)[C@H](Cc1c[nH]cn1)NC(=O)[C@H](C)NC(=O)[C@H](CC(C)C)NC(=O)[C@H](CCCNC(=N)N)NC(=O)[C@H](CCC(=O)O)NC(=O)[C@@H](NC(=O)[C@H](C)NC(=O)[C@@H]1CNC(=O)CCC[C@H](NC(=O)[C@H](CCCNC(=N)N)NC(=O)CC[C@H](NC(=O)CCCCCCCCCCCCCCCCCCC(=O)O)C(=O)O)C(=O)NCC(=O)N[C@@H]([C@@H](C)O)C(=O)N[C@@H](C)C(=O)N[C@@H]([C@@H](C)O)C(=O)N1)[C@@H](C)O
As for B4, in experiment [1], the hAMYR3 EC50 [nM] (cAMP formation, 1321N1 cells expressing hAMYR3) came to 1.5 nM. In addition, the hCT-R EC50 [nM] (cAMP formation, 1321N1 cells expressing hCT-R) in experiment [2] stood at 3.3 nM.

B5: Compound 1 (peptide)
peptide: {C20 diacid-γGlu}-RDGTAT[Dap]ATERLAHFLQRSSF[Sar]A[NMeI]LSSTEVGSNT[Hyp]-NH2
modifications: lactam 2-7
SMILES: CC[C@H](C)[C@@H](C(=O)N[C@@H](CC(C)C)C(=O)N[C@@H](CO)C(=O)N[C@@H](CO)C(=O)N[C@H](C(=O)N[C@@H](CCC(=O)O)C(=O)N[C@H](C(=O)NCC(=O)N[C@@H](CO)C(=O)N[C@@H](CC(N)=O)C(=O)N[C@H](C(=O)N1C[C@H](O)C[C@H]1C(N)=O)[C@@H](C)O)C(C)C)[C@@H](C)O)N(C)C(=O)[C@H](C)NC(=O)CN(C)C(=O)[C@H](Cc1ccccc1)NC(=O)[C@H](CO)NC(=O)[C@H](CO)NC(=O)[C@H](CCCNC(=N)N)NC(=O)[C@H](CCC(N)=O)NC(=O)[C@H](CC(C)C)NC(=O)[C@H](Cc1ccccc1)NC(=O)[C@H](Cc1c[nH]cn1)NC(=O)[C@H](C)NC(=O)[C@H](CC(C)C)NC(=O)[C@H](CCCNC(=N)N)NC(=O)[C@H](CCC(=O)O)NC(=O)[C@@H](NC(=O)[C@H](C)NC(=O)[C@@H]1CNC(=O)C[C@H](NC(=O)[C@H](CCCNC(=N)N)NC(=O)CC[C@H](NC(=O)CCCCCCCCCCCCCCCCCCC(=O)O)C(=O)O)C(=O)NCC(=O)N[C@@H]([C@@H](C)O)C(=O)N[C@@H](C)C(=O)N[C@@H]([C@@H](C)O)C(=O)N1)[C@@H](C)O
Take B5: in experiment [1], the hAMYR3 EC50 [nM] (cAMP formation, 1321N1 cells expressing hAMYR3) came to 9.3 nM. Further, the hCT-R EC50 [nM] (cAMP formation, 1321N1 cells expressing hCT-R) in experiment [2] came out at 13.6 nM.

B6: Ref. 3 (peptide)
peptide: {C20 diacid-γGlu}-RDGTAT[Orn]ATERLA[Aad]FLQRSSF[Sar]A[NMeI]LSSTEVGSNT[Hyp]-NH2
SMILES: CC[C@H](C)[C@@H](C(=O)N[C@@H](CC(C)C)C(=O)N[C@@H](CO)C(=O)N[C@@H](CO)C(=O)N[C@H](C(=O)N[C@@H](CCC(=O)O)C(=O)N[C@H](C(=O)NCC(=O)N[C@@H](CO)C(=O)N[C@@H](CC(N)=O)C(=O)N[C@H](C(=O)N1C[C@H](O)C[C@H]1C(N)=O)[C@@H](C)O)C(C)C)[C@@H](C)O)N(C)C(=O)[C@H](C)NC(=O)CN(C)C(=O)[C@H](Cc1ccccc1)NC(=O)[C@H](CO)NC(=O)[C@H](CO)NC(=O)[C@H](CCCNC(=N)N)NC(=O)[C@H](CCC(N)=O)NC(=O)[C@H](CC(C)C)NC(=O)[C@H](Cc1ccccc1)NC(=O)[C@H](CCCC(=O)O)NC(=O)[C@H](C)NC(=O)[C@H](CC(C)C)NC(=O)[C@H](CCCNC(=N)N)NC(=O)[C@H](CCC(=O)O)NC(=O)[C@@H](NC(=O)[C@H](C)NC(=O)[C@H](CCCN)NC(=O)[C@@H](NC(=O)[C@H](C)NC(=O)[C@@H](NC(=O)CNC(=O)[C@H](CC(=O)O)NC(=O)[C@H](CCCNC(=N)N)NC(=O)CC[C@H](NC(=O)CCCCCCCCCCCCCCCCCCC(=O)O)C(=O)O)[C@@H](C)O)[C@@H](C)O)[C@@H](C)O
Regarding B6, the hAMYR3 EC50 [nM] (cAMP formation, 1321N1 cells expressing hAMYR3) in experiment [1] is 13.2 nM. In experiment [2], the hCT-R EC50 [nM] (cAMP formation, 1321N1 cells expressing hCT-R) was 18.2 nM.

B7: Compound 51 (peptide)
peptide: {C20 diacid-γGlu}-REGTAT[Dab]ATERLAHFLQRSSF[Sar]A[NMeI]LSSTEVGSNT[Hyp]-NH2
modifications: lactam 2-7
SMILES: CC[C@H](C)[C@@H](C(=O)N[C@@H](CC(C)C)C(=O)N[C@@H](CO)C(=O)N[C@@H](CO)C(=O)N[C@H](C(=O)N[C@@H](CCC(=O)O)C(=O)N[C@H](C(=O)NCC(=O)N[C@@H](CO)C(=O)N[C@@H](CC(N)=O)C(=O)N[C@H](C(=O)N1C[C@H](O)C[C@H]1C(N)=O)[C@@H](C)O)C(C)C)[C@@H](C)O)N(C)C(=O)[C@H](C)NC(=O)CN(C)C(=O)[C@H](Cc1ccccc1)NC(=O)[C@H](CO)NC(=O)[C@H](CO)NC(=O)[C@H](CCCNC(=N)N)NC(=O)[C@H](CCC(N)=O)NC(=O)[C@H](CC(C)C)NC(=O)[C@H](Cc1ccccc1)NC(=O)[C@H](Cc1c[nH]cn1)NC(=O)[C@H](C)NC(=O)[C@H](CC(C)C)NC(=O)[C@H](CCCNC(=N)N)NC(=O)[C@H](CCC(=O)O)NC(=O)[C@@H](NC(=O)[C@H](C)NC(=O)[C@@H]1CCNC(=O)CC[C@H](NC(=O)[C@H](CCCNC(=N)N)NC(=O)CC[C@H](NC(=O)CCCCCCCCCCCCCCCCCCC(=O)O)C(=O)O)C(=O)NCC(=O)N[C@@H]([C@@H](C)O)C(=O)N[C@@H](C)C(=O)N[C@@H]([C@@H](C)O)C(=O)N1)[C@@H](C)O
Consider B7, for which, in experiment [1], the hAMYR3 EC50 [nM] (cAMP formation, 1321N1 cells expressing hAMYR3) was 0.306 nM. The hCT-R EC50 [nM] (cAMP formation, 1321N1 cells expressing hCT-R) in experiment [2] stood at 0.861 nM.

(Values after US20180071366A1.)
